# B1: 2-Linker (E2BS #1 and #2, 8 bp spacer) (dsDNA)
# DNA 1: ACCGAAAACGGTCGGGCGGGACCGAAAACGGT
# DNA 2: ACCGTTTTCGGTCCCGCCCGACCGTTTTCGGT
# B2: 3-Linker (E2BS #1 and #2, 12 bp spacer) (dsDNA)
# DNA 1: ACCGAAAACGGTCGGGCGGGCGGGACCGAAAACGGT
# DNA 2: ACCGTTTTCGGTCCCGCCCGCCCGACCGTTTTCGGT
# B3: 1-Linker (wt, E2BS #1 and #2 with CGGG spacer) (dsDNA)
# DNA 1: ACCGAAAACGGTCGGGACCGAAAACGGT
# DNA 2: ACCGTTTTCGGTCCCGACCGTTTTCGGT
# Experiments:
# Conditions in all cases: protein: recombinant; tags: N-terminal Strep-II; chain copies: 2; label: 32P 5' end
# [1] = biological target: T1, HPV-18 E2 (N-terminal Strep-II tag) (Human papillomavirus type 18, UniProt P06790 1-365); assay: EMSA; two dimers, cooperative; highest k12 (value only in Fig 4D)
# [2] = biological target: T1, HPV-18 E2 (N-terminal Strep-II tag); assay: EMSA; two dimers, cooperative; intermediate k12 (value only in Fig 4D)
# [3] = biological target: T1, HPV-18 E2 (N-terminal Strep-II tag); assay: EMSA; two dimers, cooperative; k12 order 1-Linker < 3-Linker < 2-Linker (values only in Fig 4D); >95% probe bound at 1.65 uM E2
# T1 sequence (P06790 whole entry): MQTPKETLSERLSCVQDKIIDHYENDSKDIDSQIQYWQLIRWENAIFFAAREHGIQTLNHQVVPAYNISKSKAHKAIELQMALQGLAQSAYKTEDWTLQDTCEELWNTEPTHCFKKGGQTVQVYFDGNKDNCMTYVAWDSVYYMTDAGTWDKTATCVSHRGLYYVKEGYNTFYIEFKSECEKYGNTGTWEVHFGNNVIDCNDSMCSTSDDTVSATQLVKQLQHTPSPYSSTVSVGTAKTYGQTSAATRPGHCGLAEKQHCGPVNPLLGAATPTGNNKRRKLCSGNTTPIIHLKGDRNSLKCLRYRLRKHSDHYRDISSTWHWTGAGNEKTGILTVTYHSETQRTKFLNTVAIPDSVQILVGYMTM
binder,measurement,setting,value
B1,binding result,[1],binds
B2,binding result,[2],binds
B3,binding result,[3],binds

# — paper PMC4545946, “Human Papillomavirus Type 18 cis-Elements Crucial for Segregation and Latency”
